Biological target: DHX9 helicase (human, UniProt Q08211 1-1270)
Experiment: EMSA; 5 mM AMP-PNP, 10 mM Mg2+; 100 nM DHX9, 100 nM DNA; EMSA: 20 mM Tris-HCl pH 7.5, 50 mM NaCl, 1 mM DTT, 1 mM EDTA, 10 mM MgCl2, 5% glycerol, 5 mM AMP-PNP, 30 C 30 min; MBN assay: 10 mM Tris-HCl pH 7.5, 5 mM DTT, 100 ug/ml BSA, 5 mM MgCl2, 5 mM ATP or AMP-PNP, 10% glycerol, 35 C
Details: protein: recombinant, tags: His, label: 5'-32P

DHX9 helicase, sequence (Q08211 whole entry): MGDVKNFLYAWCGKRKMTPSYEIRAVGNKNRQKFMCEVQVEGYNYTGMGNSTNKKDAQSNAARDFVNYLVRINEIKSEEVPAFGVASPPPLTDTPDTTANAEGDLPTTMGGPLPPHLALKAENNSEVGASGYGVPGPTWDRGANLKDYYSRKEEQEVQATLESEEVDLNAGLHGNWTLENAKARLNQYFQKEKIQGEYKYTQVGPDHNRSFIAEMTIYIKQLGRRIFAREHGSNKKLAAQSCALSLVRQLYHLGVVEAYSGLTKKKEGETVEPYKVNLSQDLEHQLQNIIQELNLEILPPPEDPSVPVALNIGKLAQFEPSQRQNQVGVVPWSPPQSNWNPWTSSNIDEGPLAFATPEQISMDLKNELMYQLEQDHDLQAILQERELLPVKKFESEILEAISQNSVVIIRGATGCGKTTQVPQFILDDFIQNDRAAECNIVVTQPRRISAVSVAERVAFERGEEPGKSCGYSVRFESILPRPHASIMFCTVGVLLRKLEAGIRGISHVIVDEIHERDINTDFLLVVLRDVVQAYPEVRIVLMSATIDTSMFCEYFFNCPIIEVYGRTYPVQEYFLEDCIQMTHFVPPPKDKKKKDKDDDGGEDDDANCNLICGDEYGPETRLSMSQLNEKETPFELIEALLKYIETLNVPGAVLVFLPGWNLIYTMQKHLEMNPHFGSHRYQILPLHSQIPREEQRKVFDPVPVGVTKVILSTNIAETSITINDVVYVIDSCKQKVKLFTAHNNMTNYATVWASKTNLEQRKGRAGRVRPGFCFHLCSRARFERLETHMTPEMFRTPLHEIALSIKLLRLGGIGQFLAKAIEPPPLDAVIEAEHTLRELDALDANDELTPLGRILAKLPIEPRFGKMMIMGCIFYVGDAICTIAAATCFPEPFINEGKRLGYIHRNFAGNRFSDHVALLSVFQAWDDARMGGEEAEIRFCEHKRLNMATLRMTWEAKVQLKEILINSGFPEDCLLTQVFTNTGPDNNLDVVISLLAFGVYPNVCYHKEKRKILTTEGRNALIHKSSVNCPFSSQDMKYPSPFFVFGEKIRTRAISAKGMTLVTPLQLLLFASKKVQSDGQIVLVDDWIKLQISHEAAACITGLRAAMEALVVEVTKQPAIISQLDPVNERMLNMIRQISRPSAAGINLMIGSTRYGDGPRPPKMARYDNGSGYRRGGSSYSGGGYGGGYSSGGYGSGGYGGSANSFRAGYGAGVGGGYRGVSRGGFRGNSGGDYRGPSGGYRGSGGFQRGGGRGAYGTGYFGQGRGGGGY

Binder | binding result (intramolecular triplex with 3' overhang, single strand, pre-annealed with 10 mM Mg2+) | binding result (self-complementary, 2 copies of one strand, blunt, hairpin may also form)
CCCCTCCCTTTTTGGGAGGGGCGCTTATGGGGAGGGCAGTCGAGCG (structured_DNA) [c-MYC-related intramolecular triplex with 3' overhang (H-DNA)] | binds | –
duplex DNA control (dsDNA) DNA 1: CTTGAGCTTGAGCTCAAGCTCAAG DNA 2: CTTGAGCTTGAGCTCAAGCTCAAG | – | no binding

Source: publication PMC3905860, “DHX9 helicase is involved in preventing genomic instability induced by alternatively structured DNA in human cells”
